US20260345798A1, “COMPOUNDS AND METHODS OF USE THEREOF” (Virginia Commonwealth University, priority 2023, published 2026)
Residues, ends and D or L forms follow the SMILES beside them.

Experiments:
[1] = PK study in mice, IV and IP; type: in vivo
Method: These studies were conducted at the Sanford-Burnham Pharmacology Core facility for measurements of IVMT-Rx-3 in plasma after dosing.
The chemical formula of IVMT-Rx-3 (PDZ1/2i) is provided as FIG. 1A, and synthesis schema is described above in Chemical Example 1. Docked structure of IVMT-Rx-3 in complex with MDA-9/Syntenin is provided as FIG. 1B. After confirming the synthesis product using different analytical methods, e.g., HPLC, LC/MS and NMR (FIGS. 8A-8F), the dissociation constant of IVMT-Rx-3-recombinant MDA-9/Syntenin complex was measured to be 63+/−11 μM using microscale thermophoresis (MST) analysis (FIG. 1C). In order to assess if this hybrid chimeric molecule (small molecule linked to a peptide) was suitable for cellular and in vivo assays, initial PK studies in mice were performed with IVMT-Rx-3 administered both IV (5.0 mg/kg) and IP (50.0 mg/kg), and compound concentration in serum was measured at the indicated times (FIG. 1D).

MDA-9/Syntenin = target: T1, MDA-9/Syntenin (Homo sapiens, UniProt O00560); experiment: Microscale thermophoresis (MST) binding affinity; settings: His-tagged recombinant MDA-9/Syntenin 175 nM, PBS-T pH 7.4, 25 °C, ± S.E., read-out: dissociation constant (KD)
T1 sequence (O00560 1-298): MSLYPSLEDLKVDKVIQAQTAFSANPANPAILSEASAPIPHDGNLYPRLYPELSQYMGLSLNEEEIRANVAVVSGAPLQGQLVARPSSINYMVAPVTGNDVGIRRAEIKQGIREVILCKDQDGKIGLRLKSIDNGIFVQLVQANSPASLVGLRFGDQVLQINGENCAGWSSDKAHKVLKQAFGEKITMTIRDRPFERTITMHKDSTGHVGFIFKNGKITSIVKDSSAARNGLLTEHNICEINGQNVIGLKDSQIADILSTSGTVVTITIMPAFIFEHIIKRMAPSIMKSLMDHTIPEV
Method: FIG. 1C is a binding curve of IVMT-Rx-3 bound to MDA-9/Syntenin. The binding constant Ka was measured from the binding curve generated through a microscale thermophoresis (MST) assay.
Binding affinity was measured using microscale thermophoresis (MST) experiments performed on a Monolith NT. Automated instrument (NanoTemper Technologies GmbH, Munich, Germany). His-tagged MDA-9/Syntenin was first labeled with RED-tris-NTA (λEX-650 nm, λEM=670 nm; Cat #MO-LO18) according to the manufacturer's protocol. Briefly, 700 nM MDA-9 in 100 mM phosphate-buffered saline, pH 7.4, containing 0.05% Tween 20 (PBS-T) was added to an equal volume of 100 nM RED-tris-NTA in PBS-T and the mixture was incubated at room temperature for 30 min, centrifuged at 15,000 g for 10 min at 4 °C, and the supernatant containing the labeled protein was transferred to a new tube for use in affinity measurements. […] After a 10-min incubation, the samples were loaded into premium capillary chips and thermophoretic measurements were performed (25 °C, 27% excitation power, medium MST power, 20 s laser on) to follow changes in normalized fluorescence (Fnorm) at different IVMT-Rx-3 concentrations (FIG. 1C). These changes were analyzed using the standard hyperbolic binding isotherm (SigmaPlot) to obtain the affinity of IVMT-Rx-3 for MDA-9/Syntenin. […]

MMP-2 and MMP-9 = MMP-2 and MMP-9 protein by Western blotting; type: cell-based, human; settings: Western blot; A-375, C8161.9, 24 hours; FIG. 4B
Method: FIG. 4B is a Western blot of C8161.9 and A-375 cells treated with indicated doses of IVMT-Rx-3 for 24 hours. Cell lysates were subjected to Western blotting analysis to determine the expression levels of various signaling proteins (as shown) associated with MDA-9/Syntenin: Src interactions. Western blotting densitometry and relative intensity of protein bands were calculated using Image J software. The values are provided.
Western blotting was performed following a standard protocol as described previously (6,8,18,29). Antibodies used in this study were purchased from Cell Signaling Technology (Boston, MA): p-Src (Y416), total Src, matrix metalloproteinase-2 (MMP-2) and matrix metaloproteinase-9 (MMP-9), focal adhesion kinase (FAK), p IKKα/β (S176/180), total IKK, p P38 (T180/Y182) and total P38. MDA-9/Syntenin antibody was obtained from Abnova Inc. (Taiwan). β-actin (Sigma-Aldrich, St. Louis, MO) was used as an endogenous loading control. Fibronectin was purchased from EMD Millipore (Billerica, MA).

In the case of `Cc1cc(NC(=O)c2nc3[nH]c4c(c(=O)n3n2)CCC4)c(C)cc1NC(=O)CCOCCC(=O)N[C@H](C(=O)N[C@@H](CC(N)=O)C(=O)N[C@@H](CCC(=O)O)C(=O)N[C@@H](Cc1ccc(O)cc1)C(=O)N[C@@H](Cc1ccc(O)cc1)C(=O)N[C@H](C(=O)O)C(C)C)[C@@H](C)O` [IVMT-Rx-3] (HELM PEPTIDE1{[Cc1cc(NC(=O)c2nc3[nH]c4c(c(=O)n3n2)CCC4)c(C)cc1NC(=O)CCOCCC(=O)[*:2]].T.N.E.Y.Y.V}$$$$V2.0), the persistence in vivo ([1]; IV 5.0 mg/kg and IP 50.0 mg/kg) is reported as “long-lived in vivo”, the bioavailability ([1]; mouse, serum, IP 50.0 mg/kg (IV 5.0 mg/kg)) is reported as 10% and the Kd (MDA-9/Syntenin) is reported as 63 µM. The “MMP-2 and MMP-9 expression (translational level)” value (MMP-2 and MMP-9) was “down regulation”.
